Experimental findings from the supplement of paper PMC10567573 are described below.

± gives the standard deviation.

This data set in a line: protein stability index of a GFP-peptide fusion (GPS, HEK-293T) (PSI 1-6); higher = more stable. The settings on record: c terminus: a fixed tail appended.
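Also: 24-mer peptide tiles fused after GFP, lentivirally expressed, FACS-sorted into six equal bins by GFP/DsRed ratio, decoded by Illumina sequencing, PSI is the read-weighted mean bin number.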

Turning to SVLLGASNADQLMENIGAIQVLPK [KCNAB2], the protein stability index runs as follows: (treatment: DMSO) 3.58 ± 0.095; (treatment: MLN4924 1 uM, 8 h) 3.6 ± 0.24.
With CTGITRLQRWCRAKHMGLEPPPEV [POLD4], the protein stability index was determined as 2.49 ± 0.31 (treatment: DMSO) and 2.96 ± 0.31 (treatment: MLN4924 1 uM, 8 h).
Taken in the same sequence, the figures for TEAGGVLMDVTGGPFDLMSRRVIA [IMPA1] were 3.22 ± 0.61 and 3.37 ± 0.42.
Taken in the same sequence, the figures for TEVVRDAVRKLKFARHIKKSEGQK [GULP1] were 3.65 ± 0.37 and 3.85 ± 0.29.
As to SNLLKAGFIRHTVNKITFSEQCYY [DVL3], the protein stability index (treatment: DMSO) amounted to 2.3 ± 0.39 and the protein stability index (treatment: MLN4924 1 uM, 8 h) turned out to be 2.39 ± 0.3.
For the sequence RSHENKLRQLTAELAEHRCHPVER [PSD2], the protein stability index is 3.84 ± 0.18 (treatment: DMSO) and 4.02 ± 0.14 (treatment: MLN4924 1 uM, 8 h).
In the same order, the values of RELNDRLAVYIDKVRSLETENSAL [LMNB1] are 3.33 ± 0.24 and 3.04 ± 0.34.
Taken in the same sequence, the figures for DGGLLSGNEKITMQNLNDRLASYL [KRT15] were 3.12 ± 0.16 and 3.09 ± 0.2.
Taken in the same sequence, the figures for EGPMEEEEAQPMAAPEGKRSLANG [EID1] were 5.66 ± 0.25 and 5.58 ± 0.21.
Sequence NGLNARMMHGGSYSLTTSSTHKRS [RAB40B] returned a protein stability index (treatment: DMSO) of 4.28 ± 0.12 and a protein stability index (treatment: MLN4924 1 uM, 8 h) of 4.34 ± 0.19.
For SSSSRVLLRQQLMRAQAQEQERRE [TFE3], the protein stability index runs as follows: (treatment: DMSO) 4.87 ± 0.3; (treatment: MLN4924 1 uM, 8 h) 5.02 ± 0.22.
With STSAVPNLFVPLNTNPKEVQEMRN [ADD1], the protein stability index runs as follows: (treatment: DMSO) 4.53 ± 0.21; (treatment: MLN4924 1 uM, 8 h) 4.43 ± 0.28.
Regarding EHRRTARRTPPGQQRPHPRSHSRE [ELOA2], the protein stability index reads like this: (treatment: DMSO) 5.47 ± 0.14; (treatment: MLN4924 1 uM, 8 h) 5.32 ± 0.39.
With LQRVLEHRRRNQLIKKKKEELEAK [FAM107A], the protein stability index runs as follows: (treatment: DMSO) 3.49 ± 0.29; (treatment: MLN4924 1 uM, 8 h) 3.81 ± 0.5.
In the same order, the values of KVEQAKKPSFQSGGRRRPPASSRN [RBMY1A1] are 4.628 ± 0.025 and 4.73 ± 0.084.
In the same order, the values of SRARSASSPRGMVRVCDLLLKKKP [ANKRD17] are 3.61 ± 0.39 and 3.51 ± 0.4.
For the sequence KVTRLKSLALDIDRDAEDQNRYLD [BET1L], the protein stability index (treatment: DMSO) is 4.44 ± 0.17 and the protein stability index (treatment: MLN4924 1 uM, 8 h) turned out to be 4.6 ± 0.18.
Taken in the same sequence, the figures for EERKNEMTQVITRTQEEKLEHVRA [TRIM55] were 5.3 ± 0.21 and 5.54 ± 0.21.
As for PVLRFDALWQVLARDCFATGRHYW [TRIM14], the protein stability index amounted to 3.5 ± 0.53 (treatment: DMSO) and 3.21 ± 0.88 (treatment: MLN4924 1 uM, 8 h).
For VETAFERLQQELEQQRCLLLARLR [TRIM15], the protein stability index turned out to be 2.81 ± 0.33 (treatment: DMSO) and 2.86 ± 0.3 (treatment: MLN4924 1 uM, 8 h).
In the same order, the values of TCKASHITSSVFPSASLGKASSRK [FBXO34] are 3.62 ± 0.28 and 3.55 ± 0.2.
Taken in the same sequence, the figures for GHEKTAKSKTRSLLKRMESLKLKS [DLC1] were 3.62 ± 0.17 and 3.89 ± 0.5.
For EEEENRDSQQPGKRRKDSEEEAAS [FANCE], the protein stability index turned out to be 5.78 ± 0.21 (treatment: DMSO) and 5.73 ± 0.2 (treatment: MLN4924 1 uM, 8 h).
Regarding TSEGTTLSGVDLELVGSGYRMSLV [FCHO1], the protein stability index reads like this: (treatment: DMSO) 2.14 ± 0.48; (treatment: MLN4924 1 uM, 8 h) 2.29 ± 0.29.
On to SAEKCGPPPPIDNGDITSFLLSVY [CFHR2], for which the protein stability index is, setting by setting: (treatment: DMSO) 2.4 ± 0.16; (treatment: MLN4924 1 uM, 8 h) 2.33 ± 0.27.
In the same order, the values of IQAINGESTELMTHLEAQNRIKGC [PDLIM4] are 4.1 ± 0.19 and 4.15 ± 0.14.
For AIDLNKKGKDNKHPMYRRLVHSAV [ZMYND11], the protein stability index reads like this: (treatment: DMSO) 2.46 ± 0.41; (treatment: MLN4924 1 uM, 8 h) 2.92 ± 0.38.
Regarding EIQVDSEEPVFEAVINWVKHAKKE [KLHL12], the protein stability index amounted to 3.57 ± 0.4 (treatment: DMSO) and 3.92 ± 0.95 (treatment: MLN4924 1 uM, 8 h).
In the case of QISMELAKVNYVKNNICFMSHHQE [SLC2A12], the protein stability index (treatment: DMSO) was 2.6 ± 0.16 and the protein stability index (treatment: MLN4924 1 uM, 8 h) was 2.41 ± 0.27.
In the case of LAATQAEKAVANFDRTEWVQIRRL [ZC2HC1C], the protein stability index was found to be 3.45 ± 0.11 (treatment: DMSO) and 3.16 ± 0.37 (treatment: MLN4924 1 uM, 8 h).
In the same order, the values of QEMVVSSLVIGALLASLTGGVLID [SLC2A12] are 3.61 ± 0.39 and 3.45 ± 0.73.
As to SSQERKFMEERELLGQDEETAMRK [RSPH3], the protein stability index came to 5.47 ± 0.38 (treatment: DMSO) and 5.51 ± 0.3 (treatment: MLN4924 1 uM, 8 h).
Taken in the same sequence, the figures for GSSSSSSSSINSPDRASGPEGSLS [FAM104A] were 5.5 ± 0.22 and 5.45 ± 0.2.
Consider KKFRTKSRTWAGEKSKREMYSRLK [CDC25A], for which the protein stability index runs as follows: (treatment: DMSO) 3.05 ± 0.39; (treatment: MLN4924 1 uM, 8 h) 3.46 ± 0.28.
In the same order, the values of SALTDRTSRAPSTYTYTSRPRALP [RSPH3] are 4.01 ± 0.26 and 3.7 ± 0.29.
In the case of ERRHREEKERRKKQQWEIMHKHNE [RSPH3], the protein stability index is, setting by setting: (treatment: DMSO) 4.8 ± 0.23; (treatment: MLN4924 1 uM, 8 h) 4.65 ± 0.28.
